Laboratory results as given in patent publication US20250288612A1 (TOPMUNNITY THERAPEUTICS TAIWAN, published 2025).

Target: T1, recombinant PD-L1 (UniProt Q9NZQ7 19-238, limits assumed)
T1 construct: also called Programmed Death-Ligand 1
Experiment: SPR, Biacore T200, multi-cycle kinetics, hTT-01 captured on Protein A chip, PD-L1 as analyte, 25 C
Method: The chip contains MabSelect SuRe ligand on the surface, allowing orientation-specific binding of the Fc region of an antibody.
The assay was performed by using the Kinetic/Affinity wizard. The Flow path was 2-1, as the ligand was injected and captured in Flow cell 2 and Flow cell 1 acted as a reference. A series of concentrations of PD-L1 were injected over the reference and the ligand surface consecutively as the association phase with short dissociation phases in between by injection running buffer. Then regeneration solution was injected as the regeneration phase. All the procedures were conducted at 25° C.

T1 sequence (Q9NZQ7 19-238 limits assumed): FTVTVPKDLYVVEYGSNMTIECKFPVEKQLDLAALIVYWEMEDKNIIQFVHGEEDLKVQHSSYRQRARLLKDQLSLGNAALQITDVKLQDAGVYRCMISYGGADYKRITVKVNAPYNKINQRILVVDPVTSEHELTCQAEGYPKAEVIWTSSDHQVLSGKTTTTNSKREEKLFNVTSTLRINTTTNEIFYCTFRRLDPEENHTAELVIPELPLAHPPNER

- Kd: 2.56 nM
- half-life (t1/2) of the interaction: 1.31 h
- koff: 0.000147 s⁻¹
- kon: 57700 M⁻¹ s⁻¹
B1: humanized anti-PD-L1 monoclonal antibody hTT-01 (antibody, V domains shown)
VH: EVQLVESGGGLVKPGGSLRLSCAASGFSLSNYVMSWVRQAPGKGLEWVATISSGGRYIYYTDSVKGRFTISRDNAKNSLYLQMNSLRAEDTAVYYCARDGSTLYYFDYWGQGTTVTVSS
VL: QTVLTQSPATLSLSPGERATLSCSASSSVDYMYWYQQKPGQAPRLLIYDTSNLATGIPARFSGSGSGTDFTLTISSLEPEDFATYYCQQWSSSPPITFGQGTKVEIK
notes: It was captured through its Fc on a Protein A chip, and an anti-human IgG secondary antibody was used in FACS; also called TT-01 humanized monoclonal antibody
